The results in this text go back to patent publication US20230272413A1 (UNITED STATES OF AMERICA AS REPRESENTED BY THE SECRETARY OF …, published 2023).

The data set deals with the molecule itself. As to the kind of experiment: SEC-MALS, homodimer. In general terms: In gel filtration, larger molecules generally elute earlier.

B1: PLRV ^NRTD (other)
chain: KHERFIAYVGIPMLTIQARENDDQIILGSLGSQRMKYIEDENQNYTNISSEYYSQSSMQAVPMYYFNVPKGQWSVDISCEGYQPTSSTSDPHRGRSDGMIAYSNADSDYWNVGEADGVKISKLRNDNTYRQGHPELEINSCHFREGQLLERDATISFHVEAPTDGRFFLVGPAIQKTAKYNYTISYGDWTDRDMELGLITVVLDEHLEGTGSANRVRRPPREGHIYMAS
notes: Selenomethionine-labeled protein was used for phasing; also called Potato leafroll virus ^NRTD; WT PLRV ^NRTD
Regarding B1, the binding result is recorded as “binds”.
